Source: patent US20220064329A1 (Novo Nordisk, published 2022)

T1: recombinant human activated Factor VII (FVIIa) (human, UniProt P08709 61-212; P08709 213-466, ten glutamate residues of the Gla domain may be gamma-carboxylated)
T1 construct: chains tethered by a disulfide bond; also called Factor VIIa; rFVIIa
T1 sequence 1: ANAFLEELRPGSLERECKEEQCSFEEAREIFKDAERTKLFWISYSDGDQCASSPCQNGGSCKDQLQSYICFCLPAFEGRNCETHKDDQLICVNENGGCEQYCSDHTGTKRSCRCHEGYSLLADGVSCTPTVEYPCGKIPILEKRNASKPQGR
T1 sequence 2: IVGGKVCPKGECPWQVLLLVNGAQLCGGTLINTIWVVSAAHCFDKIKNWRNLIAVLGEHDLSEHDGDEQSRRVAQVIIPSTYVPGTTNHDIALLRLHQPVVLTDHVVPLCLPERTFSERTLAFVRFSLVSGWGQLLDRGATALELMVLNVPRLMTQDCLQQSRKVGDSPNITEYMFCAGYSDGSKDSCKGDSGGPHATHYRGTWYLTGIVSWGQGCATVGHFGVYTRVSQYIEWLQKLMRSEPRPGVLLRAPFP


Molecular target: T1, recombinant human activated Factor VII …
Test: BLI (Fortebio)

Binder | Kd [nM]
VH SEQ ID NO 626 / VL SEQ ID NO 446 (antibody, IgG4, V domains shown, humanized 11F2; IgG4 S228P/kappa) VH: QVQLQESGPGLVKPSQTLSLTCTVSGYSISSDSAWSWIRQPPGKGLEWIGYIQYSGSTNYNPSLKSRVTISRDTSKNQFSLKLSSVTAADTAVYYCARSVNYYGNSFAVGPWGQGTLVTVSS VL: EIVLTQSPATLSLSPGERATLSCRASQGVSDYLAWYQQKPGQAPRLLIKYTSQPATGIPARFSGSGSGTDFTLTISSLEPEDFAVYYCQNGHSFPLTFGQGTKLEIK | 880
VH SEQ ID NO 626 / VL SEQ ID NO 462 (antibody, IgG4, V domains shown, humanized 11F2; IgG4 S228P/kappa) VH: QVQLQESGPGLVKPSQTLSLTCTVSGYSISSDSAWSWIRQPPGKGLEWIGYIQYSGSTNYNPSLKSRVTISRDTSKNQFSLKLSSVTAADTAVYYCARSVNYYGNSFAVGPWGQGTLVTVSS VL: EIVLTQSPATLSLSPGERATLSCRASQGVSDYLHWYQQKPGQAPRLLIKYASQPATGIPARFSGSGSGTDFTLTISSLEPEDFAVYYCQNGHSFPLTFGAGTKLEIK | 1.4
VH SEQ ID NO 634 / VL SEQ ID NO 358 (antibody, IgG4, V domains shown, humanized 11F2; IgG4 S228P/kappa) VH: QVQLQESGPGLVKPSQTLSLTCTVSGYSISSDSAWSWIRQPPGKGLEWIGYIQYSGSTNYNPSLKSRVTISRDTSKNQFSLKLSSVTAADTAVYYCARSVNYYGNSFAVGYWGQGTLVTVSS VL: EIVLTQSPATLSLSPGERATLSCRASQGISDYLHWYQQKPGQAPRLLIKYTSQPATGIPARFSGSGSGTDFTLTISSLEPEDFAVYYCQNGHSFPLTFGQGTKLEIK | 0.82
VH SEQ ID NO 634 / VL SEQ ID NO 318 (antibody, IgG4, V domains shown, humanized 11F2; IgG4 S228P/kappa) VH: QVQLQESGPGLVKPSQTLSLTCTVSGYSISSDSAWSWIRQPPGKGLEWIGYIQYSGSTNYNPSLKSRVTISRDTSKNQFSLKLSSVTAADTAVYYCARSVNYYGNSFAVGYWGQGTLVTVSS VL: EIVLTQSPATLSLSPGERATLSCRASQGISDYLHWYQQKPGEAPRLLIKYTSQPATGIPARFSGSGSGTDFTLTISSLEPEDFAVYYCQNGHSFPLTFGQGTKLEIK | 0.86
VH SEQ ID NO 634 / VL SEQ ID NO 374 (antibody, IgG4, V domains shown, humanized 11F2; IgG4 S228P/kappa) VH: QVQLQESGPGLVKPSQTLSLTCTVSGYSISSDSAWSWIRQPPGKGLEWIGYIQYSGSTNYNPSLKSRVTISRDTSKNQFSLKLSSVTAADTAVYYCARSVNYYGNSFAVGYWGQGTLVTVSS VL: EIVLTQSPATLSLSPGERATLSCRASQGLSDYLAWYQQKPGQAPRLLIKYTSQPATGIPARFSGSGSGTDFTLTISSLEPEDFAVYYCQNGHSFPLTFGQGTKLEIK | 4.5
VH SEQ ID NO 634 / VL SEQ ID NO 390 (antibody, IgG4, V domains shown, humanized 11F2; IgG4 S228P/kappa) VH: QVQLQESGPGLVKPSQTLSLTCTVSGYSISSDSAWSWIRQPPGKGLEWIGYIQYSGSTNYNPSLKSRVTISRDTSKNQFSLKLSSVTAADTAVYYCARSVNYYGNSFAVGYWGQGTLVTVSS VL: EIVLTQSPATLSLSPGERATLSCRASQGVSDYLAWYQQKPGEAPRLLIKYASQPATGIPARFSGSGSGTDFTLTISSLEPEDFAVYYCQNGHSFPLTFGQGTKLEIK | 4.3
VH SEQ ID NO 626 / VL SEQ ID NO 486 (antibody, IgG4, V domains shown, humanized 11F2; IgG4 S228P/kappa) VH: QVQLQESGPGLVKPSQTLSLTCTVSGYSISSDSAWSWIRQPPGKGLEWIGYIQYSGSTNYNPSLKSRVTISRDTSKNQFSLKLSSVTAADTAVYYCARSVNYYGNSFAVGPWGQGTLVTVSS VL: EIVLTQSPATLSLSPGERATLSCRASQGVSDYLHWYQQKPGQAPRLLIKYASQPATGIPARFSGSGSGTDFTLTISSLEPEDFGVYYCQNGHSFPLTFGQGTKLEIK | 1.6
VH SEQ ID NO 634 / VL SEQ ID NO 350 (antibody, IgG4, V domains shown, humanized 11F2; IgG4 S228P/kappa) VH: QVQLQESGPGLVKPSQTLSLTCTVSGYSISSDSAWSWIRQPPGKGLEWIGYIQYSGSTNYNPSLKSRVTISRDTSKNQFSLKLSSVTAADTAVYYCARSVNYYGNSFAVGYWGQGTLVTVSS VL: EIVLTQSPATLSLSPGERATLSCRASQGISDYLHWYQQKPGQAPRLLIKYTSQPATGIPARFSGSGSGTDFTLTISSLEPEDFAVYYCQNGHSFPLTFGAGTKLELK | 1.2
VH SEQ ID NO 634 / VL SEQ ID NO 382 (antibody, IgG4, V domains shown, humanized 11F2; IgG4 S228P/kappa) VH: QVQLQESGPGLVKPSQTLSLTCTVSGYSISSDSAWSWIRQPPGKGLEWIGYIQYSGSTNYNPSLKSRVTISRDTSKNQFSLKLSSVTAADTAVYYCARSVNYYGNSFAVGYWGQGTLVTVSS VL: EIVLTQSPATLSLSPGERATLSCRASQGLSDYLHWYQQKPGEAPRLLIKYASQPATGIPARFSGSGSGTDFTLTISSLEPEDFAVYYCQNGHSFPLTFGQGTKLEIK | 1.2
VH SEQ ID NO 626 / VL SEQ ID NO 502 (antibody, IgG4, V domains shown, humanized 11F2; IgG4 S228P/kappa) VH: QVQLQESGPGLVKPSQTLSLTCTVSGYSISSDSAWSWIRQPPGKGLEWIGYIQYSGSTNYNPSLKSRVTISRDTSKNQFSLKLSSVTAADTAVYYCARSVNYYGNSFAVGPWGQGTLVTVSS VL: EIVLTQSPATLSLSPGERATLSCRASQGVSDYLHWYQQKPGQAPRLLIKYTSQPATGIPARFSGSGSGTDFTLTISSLEPEDFAVYYCQNGHSFPLTFGQGTKLEIK | 1.8
VH SEQ ID NO 626 / VL SEQ ID NO 478 (antibody, IgG4, V domains shown, humanized 11F2; IgG4 S228P/kappa) VH: QVQLQESGPGLVKPSQTLSLTCTVSGYSISSDSAWSWIRQPPGKGLEWIGYIQYSGSTNYNPSLKSRVTISRDTSKNQFSLKLSSVTAADTAVYYCARSVNYYGNSFAVGPWGQGTLVTVSS VL: EIVLTQSPATLSLSPGERATLSCRASQGVSDYLHWYQQKPGQAPRLLIKYASQPATGIPARFSGSGSGTDFTLTISSLEPEDFAVYYCQQGHSFPLTFGQGTKLEIK | 2.5

Continued, values first:

Kd [nM] | Binder
8.2 | VH SEQ ID NO 634 / VL SEQ ID NO 398 (antibody, IgG4, V domains shown, humanized 11F2; IgG4 S228P/kappa) VH: QVQLQESGPGLVKPSQTLSLTCTVSGYSISSDSAWSWIRQPPGKGLEWIGYIQYSGSTNYNPSLKSRVTISRDTSKNQFSLKLSSVTAADTAVYYCARSVNYYGNSFAVGYWGQGTLVTVSS VL: EIVLTQSPATLSLSPGERATLSCRASQGVSDYLAWYQQKPGEAPRLLIKYTSQPATGIPARFSGSGSGTDFTLTISSLEPEDFAVYYCQNGHSFPLTFGQGTKLEIK
4.2 | VH SEQ ID NO 634 / VL SEQ ID NO 406 (antibody, IgG4, V domains shown, humanized 11F2; IgG4 S228P/kappa) VH: QVQLQESGPGLVKPSQTLSLTCTVSGYSISSDSAWSWIRQPPGKGLEWIGYIQYSGSTNYNPSLKSRVTISRDTSKNQFSLKLSSVTAADTAVYYCARSVNYYGNSFAVGYWGQGTLVTVSS VL: EIVLTQSPATLSLSPGERATLSCRASQGVSDYLAWYQQKPGQAPRLLIKYASQPATGIPARFSGSGSGTDFTLTISSLEPEDFAVYYCQNGHSFPLTFGAGTKLEIK
0.9 | VH SEQ ID NO 634 / VL SEQ ID NO 326 (antibody, IgG4, V domains shown, humanized 11F2; IgG4 S228P/kappa) VH: QVQLQESGPGLVKPSQTLSLTCTVSGYSISSDSAWSWIRQPPGKGLEWIGYIQYSGSTNYNPSLKSRVTISRDTSKNQFSLKLSSVTAADTAVYYCARSVNYYGNSFAVGYWGQGTLVTVSS VL: EIVLTQSPATLSLSPGERATLSCRASQGISDYLHWYQQKPGEAPRLLIKYTSQPATGIPARFSGSGSGTDFTLTISSLEPEDFGVYYCQNGHSFPLTFGAGTKLELK
2.1 | VH SEQ ID NO 634 / VL SEQ ID NO 310 (antibody, IgG4, V domains shown, humanized 11F2; IgG4 S228P/kappa) VH: QVQLQESGPGLVKPSQTLSLTCTVSGYSISSDSAWSWIRQPPGKGLEWIGYIQYSGSTNYNPSLKSRVTISRDTSKNQFSLKLSSVTAADTAVYYCARSVNYYGNSFAVGYWGQGTLVTVSS VL: EIVLTQSPATLSLSPGERATLSCRASQGISDYLAWYQQKPGQAPRLLIKYASQPATGIPARFSGSGSGTDFTLTISSLEPEDFAVYYCQNGHSFPLTFGQGTKLEIK
1.8 | VH SEQ ID NO 626 / VL SEQ ID NO 494 (antibody, IgG4, V domains shown, humanized 11F2; IgG4 S228P/kappa) VH: QVQLQESGPGLVKPSQTLSLTCTVSGYSISSDSAWSWIRQPPGKGLEWIGYIQYSGSTNYNPSLKSRVTISRDTSKNQFSLKLSSVTAADTAVYYCARSVNYYGNSFAVGPWGQGTLVTVSS VL: EIVLTQSPATLSLSPGERATLSCRASQGVSDYLHWYQQKPGQAPRLLIKYASQPATGIPARFSGSGSGTDFTLTISSLEPEDVAVYYCQNGHSFPLTFGQGTKLEIK
1 | VH SEQ ID NO 634 / VL SEQ ID NO 334 (antibody, IgG4, V domains shown, humanized 11F2; IgG4 S228P/kappa) VH: QVQLQESGPGLVKPSQTLSLTCTVSGYSISSDSAWSWIRQPPGKGLEWIGYIQYSGSTNYNPSLKSRVTISRDTSKNQFSLKLSSVTAADTAVYYCARSVNYYGNSFAVGYWGQGTLVTVSS VL: EIVLTQSPATLSLSPGERATLSCRASQGISDYLHWYQQKPGQAPRLLIKYASQPATGIPARFSGSGSGTDFTLTISSLEPEDFAVYYCQNGHSFPLTFGQGTKLEIK
1 | VH SEQ ID NO 634 / VL SEQ ID NO 342 (antibody, IgG4, V domains shown, humanized 11F2; IgG4 S228P/kappa) VH: QVQLQESGPGLVKPSQTLSLTCTVSGYSISSDSAWSWIRQPPGKGLEWIGYIQYSGSTNYNPSLKSRVTISRDTSKNQFSLKLSSVTAADTAVYYCARSVNYYGNSFAVGYWGQGTLVTVSS VL: EIVLTQSPATLSLSPGERATLSCRASQGISDYLHWYQQKPGQAPRLLIKYTSQPATGIPARFSGSGSGRDFTLTISSLEPEDFAVYYCQNGHSFPLTFGAGTKLELK
1.4 | VH SEQ ID NO 626 / VL SEQ ID NO 454 (antibody, IgG4, V domains shown, humanized 11F2; IgG4 S228P/kappa) VH: QVQLQESGPGLVKPSQTLSLTCTVSGYSISSDSAWSWIRQPPGKGLEWIGYIQYSGSTNYNPSLKSRVTISRDTSKNQFSLKLSSVTAADTAVYYCARSVNYYGNSFAVGPWGQGTLVTVSS VL: EIVLTQSPATLSLSPGERATLSCRASQGVSDYLHWYQQKPGEAPRLLIKYASQPATGIPARFSGSGSGTDFTLTISSLEPEDFAVYYCQNGHSFPLTFGQGTKLEIK
3.1 | VH SEQ ID NO 634 / VL SEQ ID NO 366 (antibody, IgG4, V domains shown, humanized 11F2; IgG4 S228P/kappa) VH: QVQLQESGPGLVKPSQTLSLTCTVSGYSISSDSAWSWIRQPPGKGLEWIGYIQYSGSTNYNPSLKSRVTISRDTSKNQFSLKLSSVTAADTAVYYCARSVNYYGNSFAVGYWGQGTLVTVSS VL: EIVLTQSPATLSLSPGERATLSCRASQGLSDYLAWYQQKPGEAPRLLIKYASQPATGIPARFSGSGSGTDFTLTISSLEPEDFAVYYCQNGHSFPLTFGQGTKLEIK
